Assay results: US20150218255A1 (US Dept. of Health and Human Services, published 2015)
Where a chain is given by its changes, count along the chain named.

Assays:
[1] = biological target: T1, DENV envelope domain III, serotype 3 (antigen of the Biacore assays) (Dengue virus serotype 3 (consensus …, UniProt Q5UB51 569-672)); assay: SPR (Biacore)
T1 construct: also called DIII serotype 3; DIII.3

[2] = biological target: T2, DENV envelope domain III, serotype 1 (antigen of the Biacore assays) (Dengue virus serotype 1 (consensus …, UniProt P17763 571-674)); assay: SPR (Biacore)
T2 construct: also called DIII serotype 1; DIII.1
T2 chain: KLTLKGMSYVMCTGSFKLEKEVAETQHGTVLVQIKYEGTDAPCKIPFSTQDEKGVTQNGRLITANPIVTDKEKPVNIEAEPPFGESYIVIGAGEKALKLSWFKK

[3] = biological target: T3, DENV envelope domain III, serotype 4 (antigen of the Biacore assays) (Dengue virus serotype 4 (consensus …, UniProt P09866 570-673)); assay: SPR (Biacore)
T3 construct: also called DIII serotype 4; DIII.4

[4] = biological target: T4, DENV envelope domain III, serotype 2 (antigen of the Biacore assays) (Dengue virus serotype 2 (consensus …, UniProt P14337 571-674)); assay: SPR (Biacore)
T4 construct: also called DIII serotype 2; DIII.2

[5] = biological target: T1, DENV envelope domain III, serotype 3 …; assay: SPR (Biacore); remark: listed apart in the source
[6] = biological target: T2, DENV envelope domain III, serotype 1 …; assay: SPR (Biacore)
[7] = biological target: T3, DENV envelope domain III, serotype 4 …; assay: SPR (Biacore); remark: listed apart in the source
[8] = biological target: T4, DENV envelope domain III, serotype 2 …; assay: SPR (Biacore); remark: listed apart in the source
[9] = biological target: T1, DENV envelope domain III, serotype 3 …; assay: SPR (Biacore X100), scFv m366 immobilised on CM5, antigen injected, 1:1 Langmuir fit
[10] = biological target: T2, DENV envelope domain III, serotype 1 …; assay: as above
[11] = biological target: T3, DENV envelope domain III, serotype 4 …; assay: as above
[12] = biological target: T4, DENV envelope domain III, serotype 2 …; assay: as above

T4 sequence (P14337 571-674 limits assumed): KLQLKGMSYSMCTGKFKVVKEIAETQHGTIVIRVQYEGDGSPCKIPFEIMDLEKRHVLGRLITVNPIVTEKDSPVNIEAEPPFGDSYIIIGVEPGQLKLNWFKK
T3 sequence (P09866 570-673 limits assumed): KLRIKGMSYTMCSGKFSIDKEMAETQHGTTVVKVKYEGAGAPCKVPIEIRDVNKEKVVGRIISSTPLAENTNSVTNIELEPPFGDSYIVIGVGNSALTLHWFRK
T1 sequence (Q5UB51 569-672 limits assumed): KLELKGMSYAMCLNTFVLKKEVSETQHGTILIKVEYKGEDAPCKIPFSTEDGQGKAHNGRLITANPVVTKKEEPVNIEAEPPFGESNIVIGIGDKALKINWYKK

B1: human anti-dengue virus antibody scFv m360.6 (scFv)
scFv: KVTLKESGPTLVKPRQTLTLTCTFSGFSLSTSGMRVSWVRQPPGKALEWIARIDWDDDKFYSTSLKTRLTISKDTFKNQVVLTMTNMDPVDTAMYYCVRTPYNWNDGPRGALDIWGQGTMVTVSSGGDRSDGGASGGGGSQSMLTQSPSVSAAPGQNVTISCSGDYPNIRNNYVSWYQQLPGAAPKLLIYDNNKRPSGIPDRFSGSKSGTSATLDITGLQTGDEADYYCGAWDSRLSAVVFGGGTKLTVLG
notes: also called antibody m360.6
[1]
  Kd: 0.0023 nM
[2]
  Kd: 0.31 nM
[3]
  Kd: 33 nM
[4]
  Kd: 0.24 nM

B2: human anti-dengue virus antibody scFv m360 (scFv)
scFv: QVTLKESGPTLVKRTQTLTLTCTFFGFSLSTSGMRVSWIRQPPGKALEWIARIDWDDDKFYSISLKSRLTISKDTSKNQVVLTMTNMDPVDTATYYCARTPYNWNDGPRGAFDIWGQGTMVTVSSEGGGSGGGASSGGGSQSVLTQPPSVSAAPGQKVTIPCSGSYSNIRNNYVSWYQQLPGTAPKLLIYDDNKRPSGIPDRFSGSKSGTLATLVITGLQSGDEADYYCGTWDSSLSGVVFGGGTKLTVLG
notes: also called antibody m360
[5]
  Kd: 0.116 nM
[6]
  Kd: 5.84 nM
[7]
  Kd: 82.8 nM
[8]
  Kd: 5.13 nM

B3: human anti-dengue virus antibody scFv m366 (scFv)
scFv: QLQLQESGGGLVQPGGSLRLSCAASGFTFSSYSMNWVRQAPGKRLEWVSSISGSSSYIYYADSVKGRFTISRDNAKNSLYLQMDSLRAEDTAVYYCARYAAGIWTFDIWGQGTTVTVSSGGGGSGGGASGGGGSSYELTQPPSVSVAPGKTASISCGGDNIGRKSVHWFQQKPGQAPVLVLYDDSDRPSGIPARFSGSNSGNTATLTISRVEAGDEADYYCQVWARSSDHPNWVFGGGTKLTVLG
notes: also called antibody m366
[9]
  Kd: 1.09 nM
  koff: 0.000204 s⁻¹
  kon: 186000 M⁻¹ s⁻¹
[10]
  Kd: 6.14 nM
[11]
  Kd: 12.4 nM
[12]
  Kd: 2.51 nM

B4: human anti-dengue virus antibody scFv m366.6 (scFv)
scFv: B3 scFv with Y32H, V37I, G53S, K65R, A100M, T114M, R210G, H230L
notes: also called antibody m366.6
[1]
  Kd: 0.27 nM
[2]
  Kd: 0.44 nM
[3]
  Kd: 0.75 nM
[4]
  Kd: 0.29 nM
